The target of test [1] is NS3-4A protease Q80K, single-chain proteolytic domain (NS4A21-32-GSGS-NS3 3-181) (hepatitis C virus).
The target of test [2] is NS3-4A protease Q80K-A91S, single-chain proteolytic domain (NS4A21-32-GSGS-NS3 3-181) (hepatitis C virus).
Test [3] addresses NS3-4A protease Q80K-A91S-S174N, single-chain proteolytic domain (NS4A21-32-GSGS-NS3 3-181) (hepatitis C virus).
The target in test [4] is NS3-4A protease Q80K-A91T, single-chain proteolytic domain (NS4A21-32-GSGS-NS3 3-181) (hepatitis C virus).
Test [5] concerns the target NS3-4A protease Q80K-A91T-S174N, single-chain proteolytic domain (NS4A21-32-GSGS-NS3 3-181) (hepatitis C virus).
The target in test [6] is NS3-4A protease Q80K-S174N, single-chain proteolytic domain (NS4A21-32-GSGS-NS3 3-181) (hepatitis C virus).
For test [7], the target named is NS3-4A protease WT, single-chain proteolytic domain (NS4A21-32-GSGS-NS3 3-181) (hepatitis C virus).

Drawing on paper PMC8405986, this text covers KM (μM) of cleavage of the NS4A/4B FRET peptide substrate by purified protease (FRET-based protease assay) for one substance.

On to “viral polyprotein substrate derived from the NS4A/4B cleavage site (SensoLyte 520 HCV; Anaspec) (peptide)”, for which the KM (μM) of cleavage of the NS4A/4B FRET peptide substrate by purified protease (FRET-based protease assay) worked out at 1.44 µM in test [1]; 0.56 µM in test [2]; 8.16 µM in test [3]; 0.48 µM in test [4]; 0.67 µM in test [5]; 0.14 µM in test [6]. Also, in test [7], the KM (μM) of cleavage of the NS4A/4B FRET peptide substrate by purified protease (FRET-based protease assay) came to 2.71 µM.
